Experimental data taken from US11370841B2, “Methods of treating fibroblast growth factor 19-mediated cancers and tumors” (NGM Biopharmaceuticals, Inc., priority 2016, dated 2022).

Columns and labels:
[1] = system: FGF19-mediated hepatocellular carcinoma; experiment: AAV-FGF19 tumorigenicity and metabolic study in Stat3f/f and Stat3ΔHep mice; settings: for Reduction in hepatic mRNA levels of Cyp7a1 / Reduction in hepatic mRNA levels of Cyp8b: AAV-expressed FGF19, 12 months
Method: Hepatocyte-specific Stat3 deletion. […] Stat3^f/f mice injected with AAV-TBG-Cre alone served as Stat3^ΔHep controls. Stat3^f/f mice were used as wild type controls. AAV-TBG-Cre drives Cre recombinase expression under TBG promoter, which allows hepatocyte-specific expression.
52 weeks after AAV injection, mice were euthanized and examined for liver tumor formation. The maximum diameter of liver tumor nodules in each mouse was measured with a caliper and total numbers of tumor nodules per liver were recorded. Livers were weighed and collected for histological examination or gene expression analysis.
Glucose and body composition. Blood concentrations of ad libitum fed glucose were measured in conscious animals from a hand-held glucometer (Accu-check, Roche Diagnostics) using tail vein blood. Body weight and body composition (EcoMRI whole body composition analyzer) were measured at designated times. Mice were euthanized 52 weeks post-AAV administration. Macroscopic liver tumors were counted and the maximal diameter of the tumors recorded.
Gene expression analysis.
Blood parameters. Blood was collected from tail vein in un-anesthetized animals using microvette serum gel tubes (Sarstedt) for measurements of glucose, insulin, ALT, AST, ALP, bile acids, and FGF19 concentrations. Serum samples were prepared by centrifugation at 4° C. for 10 minutes at 6000 g after clotting at room temperature for 30 minutes. For HbA1c measurements, whole blood was collected after euthanasia by cardiac puncture into EDTA-tubes and quickly inverted multiple times. HbA1c (from whole blood samples) and liver enzyme (from serum samples) levels were measured on Cobas Integra 400 Clinical Analyzer (Roche Diagnostics). Serum FGF19 level was determined by FGF19 enzyme-linked immunosorbent assays (ELISA) (Biovendor). Serum insulin was assessed with ELISA kits from ALPCO. Concentrations of total bile acids in serum were determined using a 3β-hydroxysteroid dehydrogenase method (Diazyme). All assays were performed according to the manufacturers' instructions.
Histology and immunohistochemistry. Livers were fixed in 10% neutral-buffered formalin and embedded in paraffin. 5 μm sections were deparaffinized in xylenes, rehydrated sequentially in graded ethanol (100%, 95%, 80%, 70%, 50%, 2 minutes each). Hematoxylin and eosin staining was performed using standard methods. For immunohistochemical studies, liver sections were subjected to antigen retrieval in a citrate-based Antigen Unmasking Solution (Vector Laboratories), and incubated for 30 minutes with 3% H2O2 at room temperature to block endogenous peroxidase activity. Sections were stained with primary antibodies against glutamine synthetase (Thermo Fisher), BrdU, PCNA, or STAT3 in PBS containing 10% goat serum. Biotinylated secondary antibodies, ABC-HRP reagent (Vectastain ABC kit, #PK-6100, Vector Laboratories) and di-amine-benzidine (DAB) colorimetric peroxidase substrate (#SK-4100, Vector Laboratories) were used for detection. When indicated, sections were counterstained with hematoxylin. Digital imaging microscopy was performed using a Leica DM4000 microscope equipped with DFC500 camera and a scanning platform (Leica). Images for the entire liver section were acquired by stitching 70-96 fields together using Surveyor program for morphometric analysis. Glutamine synthetase-positive tumor areas were quantified using Measure/Count/Area tool from ImagePro software.

[2] = system: FGF19-induced HCC; experiment: Tumorigenicity study in IL-6-deficient mice; assay type: in vivo; settings: both Il6+/+ and Il6-/- mice, AAV-expressed FGF19
Method: Histology and immunohistochemistry. […] Hematoxylin and eosin staining was performed using standard methods. […] When indicated, sections were counterstained with hematoxylin.
Tumorigenicity study in IL-6-deficient mice. Il6^−/− mice were backcrossed to C57BL/6 mice for at least nine generations. Age and gender-matched wild type C57BL6 mice were used as Il6^+/+ controls. […] Body weight, body composition, and blood glucose were measured at designated times. Mice were euthanized 52 weeks post-AAV administration for liver tumor assessment.

[3] = Stat3f/f mice, AAV-expressed FGF19

FGF19: Fibroblast growth factor 19, mature human 194 amino acid polypeptide (SEQ ID NO: 1); recombinant protein or AAV-expressed
Body weight [1, 3]: weight-lowering | Glucose [1, 3]: glucose-lowering | Reduction in hepatic mRNA levels of Cyp7a1 ([1]; Stat3f/f mice): 77% | Reduction in hepatic mRNA levels of Cyp8b ([1]; Stat3f/f mice): 95% | Reduction in hepatic mRNA levels of Cyp7a1 ([1]; Stat3ΔHep mice): 87% | Reduction in hepatic mRNA levels of Cyp8b ([1]; Stat3ΔHep mice): 88% | Body fat composition [2]: efficiently reduced
